These results are taken from paper doi:10.1101/2025.09.10.675349 (bioRxiv, 2025).

Numbering of substitutions follows the chain as printed. Names and notes keep the numbering of the source.

The series deals with the molecule itself. Kind of series: SEC. For orientation: In gel filtration, larger molecules generally elute earlier.

B1: Staphylococcus aureus serine protease-like protein B (SplB), recombinant, catalytically active (enzyme, UniProt Q2FFT0 37-240, looked up)
chain: ENNVTKVKDTNIFPYTGVVAFKSATGFVVGKNTILTNKHVSKNYKVGDRITAHPNSDKGNGGIYSIKKIINYPGKEDVSVIQVEERAIERGPKGFNFNDNVTPFKYAAGAKAGERIKVIGYPHPYKNKYVLYESTGPVMSVEGSSIVYSAHTESGNSGSPVLNSNNELVGIHFASDVKNDDNRNAYGVYFTPEIKKFIAENIDK
Turning to B1, the binding result was “binds”.

B2: Catalytically inactive SplB mutant (S193A), recombinant (enzyme, UniProt Q2FFT0 37-240, looked up)
chain: B1 chain with S157A
Consider B2, for which the binding result was “binds”.
